Starred links: 1 amine or outer side, 2 acyl side, 3 side chain; linkers in the order of their positions; H or OH if unused. Positions of bridges follow the written chain, without caps; N, C: chain ends. Non-standard residues stand in square brackets, D forms with d. Primed or numbered codes have the meaning given here. PyrS2″ = (S)-3-amino-1-((pent-4-en-1-yloxy)carbonyl)pyrrolidine-3-carboxylic acid (stapling residue), C=CCCCOC(=O)N1CC[C@@](N[*:1])(C(=O)[*:2])C1; B5(4) = 2,2-bis(4-pentenyl)glycine = 2-amino-2-(pent-4-en-1-yl)hept-6-enoic acid (stitching residue), C=CCCCC(CCCC=C)(N[*:1])C(=O)[*:2]; B5(5) = 2,2-bis(4-pentenyl)glycine, 2-amino-2-(pent-4-en-1-yl)hept-6-enoic acid (stitching residue), C=CCCCC(CCCC=C)(N[*:1])C(=O)[*:2]; TfeGA = (S)-2-amino-3-((carboxymethyl)(2,2,2-trifluoroethyl)amino)propanoic acid, O=C([C@H](CN(CC(=O)[*:3])CC(F)(F)F)N[*:1])[*:2]; B5(3) = 2,2-bis(4-pentenyl)glycine (stitching residue), C=CCCCC(CCCC=C)(N[*:1])C(=O)[*:2]; Phe(3-CF3) = N[C@@H](Cc1cccc(C(F)(F)F)c1)C(=O)O; Phe(3-F) = N[C@@H](Cc1cccc(F)c1)C(=O)O; Phe(3-Me) = Cc1cccc(C[C@H](N)C(=O)O)c1; 2Nal = N[C@@H](Cc1ccc2ccccc2c1)C(=O)O; Bta = N[C@@H](Cc1csc2ccccc12)C(=O)O; αAllylPro = C=CC[C@@]1(C(=O)O)CCCN1; tBuAla = CC(C)(C)C[C@H](N)C(=O)O; 3Thi = N[C@@H](Cc1ccsc1)C(=O)O; S8 = C=CCCCCCC[C@](C)(N)C(=O)O; hSer = N[C@@H](CCO)C(=O)O
B1: I-1270 (peptide)
peptide: Ac-[αAllylPro]D[tBuAla][B5(3)]DTAAFT[PyrS2″][2Nal][Bta]S-NH2
modifications: staple 1-4; staple 4-11 (inferred); not fully specified; printed as Ac-PL3-Asp-Npg-B5-Asp-Thr-Ala-Ala-Phe-Thr-PyrS2-2NapA-BztA-Ser-NH2
B2: I-1271 (peptide)
peptide: Ac-[αAllylPro]D[tBuAla][B5(3)]DTAAFT[PyrS2″][Phe(3-CF3)][Bta]S-NH2
modifications: staple 1-4; staple 4-11 (inferred); not fully specified; printed as Ac-PL3-Asp-Npg-B5-Asp-Thr-Ala-Ala-Phe-Thr-PyrS2-3F3MeF-BztA-Ser-NH2
B3: Ac-PL3-Ser-Npg-B5-Asp-Asp-Ala-Ala-Phe-Leu-PyrS2-3Thi-BztA-Gln-NH2 (peptide)
peptide: Ac-[αAllylPro]S[tBuAla][B5(5)]DDAAFL[PyrS2″][3Thi][Bta]Q-NH2
modifications: staple 1-4, 4-11
B4: Ac-PL3-Ser-Npg-B5-Asp-Asp-Ala-Ala-Phe-Asn-PyrS2-3Thi-BztA-Gln-NH2 (peptide)
peptide: Ac-[αAllylPro]S[tBuAla][B5(5)]DDAAFN[PyrS2″][3Thi][Bta]Q-NH2
modifications: staple 1-4, 4-11
B5: Ac-PL3-Asp-Npg-B5-Asn-Asp-Ala-Ala-Phe-Leu-PyrS2-3Thi-BztA-Gln-NH2 (peptide)
peptide: Ac-[αAllylPro]D[tBuAla][B5(3)]NDAAFL[PyrS2″][3Thi][Bta]Q-NH2
modifications: staple 1-4, 4-11
B6: Ac-PL3-Gln-Npg-B5-Asp-Asp-Ala-Ala-Phe-Asn-PyrS2-3Thi-BztA-Gln-NH2 (peptide)
peptide: Ac-[αAllylPro]Q[tBuAla][B5(5)]DDAAFN[PyrS2″][3Thi][Bta]Q-NH2
modifications: staple 1-4, 4-11
B7: Ac-PL3-Gln-Npg-B5-Asp-Asp-Ala-Ala-Phe-Leu-PyrS2-3Thi-BztA-Gln-NH2 (peptide)
peptide: Ac-[αAllylPro]Q[tBuAla][B5(5)]DDAAFL[PyrS2″][3Thi][Bta]Q-NH2
modifications: staple 1-4, 4-11
B8: Ac-PL3-Asp-Npg-B5-Ser-Asp-Ala-Ala-Phe-Asn-PyrS2-3Thi-BztA-Gln-NH2 (peptide)
peptide: Ac-[αAllylPro]D[tBuAla][B5(5)]SDAAFN[PyrS2″][3Thi][Bta]Q-NH2
modifications: staple 1-4, 4-11
B9: Ac-PL3-Asp-Npg-B5-Gln-Asp-Ala-Ala-Phe-Leu-PyrS2-3Thi-BztA-Gln-NH2 (peptide)
peptide: Ac-[αAllylPro]D[tBuAla][B5(5)]QDAAFL[PyrS2″][3Thi][Bta]Q-NH2
modifications: staple 1-4, 4-11
B10: Ac-PL3-Asp-Npg-B5-Gln-Asp-Ala-Ala-Phe-Asn-PyrS2-3Thi-BztA-Gln-NH2 (peptide)
peptide: Ac-[αAllylPro]D[tBuAla][B5(5)]QDAAFN[PyrS2″][3Thi][Bta]Q-NH2
modifications: staple 1-4, 4-11
B11: Ac-PL3-Asp-Npg-B5-Asn-Asp-Ala-Ala-Phe-Asn-PyrS2-3Thi-BztA-Gln-NH2 (peptide)
peptide: Ac-[αAllylPro]D[tBuAla][B5(3)]NDAAFN[PyrS2″][3Thi][Bta]Q-NH2
modifications: staple 1-4, 4-11
B12: Ac-PL3-Asn-Npg-B5-Asp-Asp-Ala-Ala-Phe-Leu-PyrS2-3Thi-BztA-Gln-NH2 (peptide)
peptide: Ac-[αAllylPro]N[tBuAla][B5(3)]DDAAFL[PyrS2″][3Thi][Bta]Q-NH2
modifications: staple 1-4, 4-11
B13: Ac-PL3-Asp-Npg-B5-Hse-Asp-Ala-Ala-Phe-Leu-PyrS2-3Thi-BztA-Gln-NH2 (peptide)
peptide: Ac-[αAllylPro]D[tBuAla][B5(5)][hSer]DAAFL[PyrS2″][3Thi][Bta]Q-NH2
modifications: staple 1-4, 4-11
B14: Ac-PL3-Asp-Npg-B5-Hse-Asp-Ala-Ala-Phe-Asn-PyrS2-3Thi-BztA-Gln-NH2 (peptide)
peptide: Ac-[αAllylPro]D[tBuAla][B5(5)][hSer]DAAFN[PyrS2″][3Thi][Bta]Q-NH2
modifications: staple 1-4, 4-11
B15: Ac-PL3-Asp-Npg-B5-Ser-Asp-Ala-Ala-Phe-Leu-PyrS2-3Thi-BztA-Gln-NH2 (peptide)
peptide: Ac-[αAllylPro]D[tBuAla][B5(5)]SDAAFL[PyrS2″][3Thi][Bta]Q-NH2
modifications: staple 1-4, 4-11
B16: Ac-PL3-Asp-Npg-B5-Leu-Asp-Ala-Ala-Phe-Asn-PyrS2-3Thi-BztA-Gln-NH2 (peptide)
peptide: Ac-[αAllylPro]D[tBuAla][B5(5)]LDAAFN[PyrS2″][3Thi][Bta]Q-NH2
modifications: staple 1-4, 4-11
B17: I-404 (peptide)
peptide: Ac-[αAllylPro]DA[B5(4)]D[TfeGA]AA[Phe(3-Me)]Q[S8][Phe(3-F)][Bta]Q-NH2
modifications: staple 1-4, 4-11

target: full-length beta-Catenin (Uniprot ID P35222) (Homo sapiens (Human)) (UniProt P35222); assay: fluorescence polarization competition; full-length beta-catenin + 5FAM-TCF4(10-53) probe
Target sequence in this assay (P35222 whole entry, the tested form may be a part): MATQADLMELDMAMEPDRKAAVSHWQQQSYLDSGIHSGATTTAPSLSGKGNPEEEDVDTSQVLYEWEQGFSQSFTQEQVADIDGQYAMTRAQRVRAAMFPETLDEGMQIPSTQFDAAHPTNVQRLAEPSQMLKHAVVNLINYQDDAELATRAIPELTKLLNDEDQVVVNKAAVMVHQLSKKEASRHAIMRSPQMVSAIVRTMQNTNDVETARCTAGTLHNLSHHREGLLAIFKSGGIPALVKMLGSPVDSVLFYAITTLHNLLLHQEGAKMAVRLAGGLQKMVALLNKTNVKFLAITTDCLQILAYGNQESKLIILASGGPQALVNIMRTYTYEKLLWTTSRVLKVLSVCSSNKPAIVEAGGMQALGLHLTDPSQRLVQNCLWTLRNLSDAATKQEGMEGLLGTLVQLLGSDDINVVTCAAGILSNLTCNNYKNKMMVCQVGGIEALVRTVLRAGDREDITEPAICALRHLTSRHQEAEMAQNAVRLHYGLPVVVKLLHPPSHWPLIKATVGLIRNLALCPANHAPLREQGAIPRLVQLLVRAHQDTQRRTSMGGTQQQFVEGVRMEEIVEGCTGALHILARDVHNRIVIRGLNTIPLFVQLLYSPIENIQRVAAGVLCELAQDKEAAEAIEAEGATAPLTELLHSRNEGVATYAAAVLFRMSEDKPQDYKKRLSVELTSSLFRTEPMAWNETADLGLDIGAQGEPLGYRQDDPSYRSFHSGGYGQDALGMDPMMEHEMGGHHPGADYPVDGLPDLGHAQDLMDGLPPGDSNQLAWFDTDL

Binder	EC50
B1	3700 nM
B2	682 nM

target: full-length beta-Catenin (Uniprot ID P35222) (Homo sapiens (Human)) (UniProt P35222); assay: fluorescence polarization competition; full-length beta-catenin, 5FAM-TCF4(10-53) probe displaced
Target sequence in this assay (P35222 whole entry, the tested form may be a part): as above

Binder	IC50
B3	550 nM
B4	511 nM
B5	40 nM
B6	389 nM
B7	305 nM
B8	349 nM
B9	115 nM
B10	56 nM
B11	32 nM
B12	14 nM
B13	216 nM
B14	116 nM
B15	479 nM
B16	8660 nM

target: full-length beta-Catenin (Uniprot ID P35222) (Homo sapiens (Human)) (UniProt P35222); assay: fluorescence polarization competition; 10 nM full-length beta-catenin + 10 nM 5FAM-TCF4(10-53) probe, peptide titrated
Target sequence in this assay (P35222 2-781 limits assumed): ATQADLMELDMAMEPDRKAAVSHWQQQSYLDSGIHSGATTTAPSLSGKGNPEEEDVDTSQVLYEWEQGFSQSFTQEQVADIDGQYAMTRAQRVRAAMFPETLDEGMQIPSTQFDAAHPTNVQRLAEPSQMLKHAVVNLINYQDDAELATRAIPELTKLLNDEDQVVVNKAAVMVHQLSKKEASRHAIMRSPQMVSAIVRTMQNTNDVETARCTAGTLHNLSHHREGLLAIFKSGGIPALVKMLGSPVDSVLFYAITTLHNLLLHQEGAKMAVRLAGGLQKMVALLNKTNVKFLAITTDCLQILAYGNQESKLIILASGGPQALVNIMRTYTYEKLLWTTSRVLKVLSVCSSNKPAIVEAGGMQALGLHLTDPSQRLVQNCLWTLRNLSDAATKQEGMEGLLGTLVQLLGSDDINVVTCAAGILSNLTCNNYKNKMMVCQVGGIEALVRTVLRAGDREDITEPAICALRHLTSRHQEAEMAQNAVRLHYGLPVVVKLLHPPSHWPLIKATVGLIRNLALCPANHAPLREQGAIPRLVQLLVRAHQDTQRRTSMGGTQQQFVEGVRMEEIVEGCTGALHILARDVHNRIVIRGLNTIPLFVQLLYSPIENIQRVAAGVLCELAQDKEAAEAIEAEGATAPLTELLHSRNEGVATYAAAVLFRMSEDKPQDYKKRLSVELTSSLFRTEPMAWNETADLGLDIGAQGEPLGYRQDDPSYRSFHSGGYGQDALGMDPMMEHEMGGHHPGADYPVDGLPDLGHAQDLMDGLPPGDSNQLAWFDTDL

Binder	EC50
B17	1850 nM

target: full-length beta-Catenin (Uniprot ID P35222) (Homo sapiens (Human)) (UniProt P35222); assay: fluorescence polarization competition; full-length beta-catenin with 5FAM-labeled TCF4 (residues 10-53) probe as competitor
Target sequence in this assay (P35222 whole entry, the tested form may be a part): as the sequence (P35222 whole entry, the tested form may be a part) above

Binder	IC50
B17	1850 nM

target: full-length beta-Catenin (Uniprot ID P35222) (Homo sapiens (Human)) (UniProt P35222); assay: fluorescence polarization competition against 5FAM-TCF4(10-53) on full-length beta-catenin
Target sequence in this assay (P35222 whole entry, the tested form may be a part): as above

Binder	IC50
B1	3700 nM
B2	682 nM
